# Experimental data: publication PMC3564912, “Single Particle Electron Microscopy Analysis of the Bovine Anion Exchanger 1 Reveals a Flexible Linker Connecting the Cytoplasmic and Membrane Domains” (PLoS ONE, 2013)
# B1: bovine anion exchanger 1 (AE1) (natural protein, UniProt Q9XSW5 1-930, looked up)
# chain: MGDPEEYEDQLEETLEQKEYEDHDSVSIPMEEAEGDTIQEEEAEARVNQLTDTDYHTTSQHPETHKVCVQLRELVMDEKNQEIQWMETARWVGLEENLGKDGIWGRPHLPYLNFWSLLELQKAFAKGTVLLDLPGKSLAEVANQLLDRFTFEGQIQPDDQDNLLRVLLLKHSHASDMEALGGVKPVVVTHSGDPSEPLLPQHPSLETELFCEQGEGSTRGHAPEILGKSPQDWEATLVLVGCARFLKRPVLGFVRLKEPMEPEPKPEGSEEPAVPVRFLIVLLGPEGPNINYTQLGRAAATLMSERVFWNDAYLAQSKETLVQSLEGFLDCSLVLPPLDAPSEKALLSLVPVQKELLRRRYLPSPAKPDPSIFKDLDVKKGPGDTPEDPLQRTGKLFGGLVRDIRRRYPRYLSDITDALSPQVLSAIIFIYFAALTPAITFGGLLGDKTENMIGVSELLLSTALQGIIFSLLGAQPLLVLGFSGPLLVFEEAFYSFCQTNNLEYIVGRVWIGFWLILLVVLVVAFEGSFLVRFISRYTQEIFSFLISLIFIYETFYKLVTIFQDHPLQKNYDHDVLTTPKPQAALPNTALLSLVLMAGTFFLAMMLRKFKNSSYFPGKLRRIIGDFGVPISILIMVMVDALIQDTYTQKLSVPEGLSVSNPTERDWLIHPLGIRVEFPIWMMFASALPALLVFILIFLESQITTLIISKPERKMVKGSGFHLDLLLIIGMGGVGAIFGMPWLSATTVRTVTHANALTVMSKDSTPGAVSQIQGVKEQRISGLLVAVLVGVSILMGPVLRHIPLAVLFGIFLYMGVTSLSGIQLFDRVLLLLKPRKYYPEVPYARRVKTWRMHLFTITQIVCLVVLWVVRSIKQISLALPFILILTVPLRRFLLPFIFRDMELKLLDADDVKLNLDEQNGQDEYDEVAMPV
# notes: anion exchanger 1 (AE1, band 3), bovine, native protein from erythrocyte membranes; monomer about 100 kDa; Solubilised in dodecyl maltoside (0.03% DDM in the final buffer); The dimer fraction from size exclusion was used; also called bovine AE1; full-length AE1 dimer; source: purified from bovine erythrocyte membranes (ghosts; DDM extraction, DE-52 ion exchange, Superose 6 size exclusion)
# Target: the molecule itself
# Experiment: SEC; Superose 6 10/300, 50 mM Tris-HCl pH 7.5, 0.03% DDM, 0.15 M NaCl; sample after ion exchange and the dimer fraction run again
protein,measurement,value
B1,stoichiometry N,2
